Data: patent publication US20020115167

Target: T1, Dishevelled (Dsh) protein, Drosophila, P51140
T1 chain: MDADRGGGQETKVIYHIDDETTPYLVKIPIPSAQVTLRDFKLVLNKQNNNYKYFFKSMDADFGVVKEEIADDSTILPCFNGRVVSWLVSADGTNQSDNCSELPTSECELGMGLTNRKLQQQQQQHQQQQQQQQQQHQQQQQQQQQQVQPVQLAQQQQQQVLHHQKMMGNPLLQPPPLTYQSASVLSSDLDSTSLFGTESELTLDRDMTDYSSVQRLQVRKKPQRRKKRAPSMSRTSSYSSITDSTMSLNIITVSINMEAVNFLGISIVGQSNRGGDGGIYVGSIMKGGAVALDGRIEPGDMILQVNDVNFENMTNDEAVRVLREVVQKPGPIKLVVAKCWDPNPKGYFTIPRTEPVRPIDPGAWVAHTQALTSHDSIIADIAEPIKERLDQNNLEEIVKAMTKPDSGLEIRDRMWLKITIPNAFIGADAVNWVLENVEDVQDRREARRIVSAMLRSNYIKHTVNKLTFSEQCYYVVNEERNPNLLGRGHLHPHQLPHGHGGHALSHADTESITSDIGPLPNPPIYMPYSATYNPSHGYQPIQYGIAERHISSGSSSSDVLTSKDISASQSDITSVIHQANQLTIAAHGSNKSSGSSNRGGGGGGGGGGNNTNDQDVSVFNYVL

B1: Drosophila PAR-1 (dPAR-1), the Dishevelled-associated kinase (protein)
chain: MSTAMRTTLQSVPEALPADSVSNGTASNVAAPAAPVSSATNAVPPLAAVSSTTATYATNSISTSSHSVKDQQQQQQQQQHDSANANIVSLPPTTTPVANTNTMMPIVTSSNSATSNSTAATPTPASGAAATGGVGSVSQGPATVSASAANTNHSHQHSHQHHHHVANNMTTDGARLSSNNSAVVASSAINHHHHHTPGSGVAPTVNKNVLSTHSAHPSAIKQRTSSAKGSPNMQMRSSAPMRWRATEEHIGKYKLIKTIGKGNFAKVKLAKHLPTGKEVAIKIIDKTQLNPGSLQKLFREVRIMKMLDHPNIVKLFQVIETEKTLYLIMEYASGGEVFDYLVLHGRMKEKEARVKFRQIVSAVQYCHQKRIIHRDLKAENLLLDSELNIKIADFGFSNEFTPGSKLDTFCGSPPYAAPELFQGKKYDGPEVDVWSLGVILYTLVSGSLPFDGSTLRELRERVLRGKYRIPFYMSTDCENLLRKFLVLNPAKRASLETIMGDKWMNMGFEEDELKPYIEPKADLADPKRIEALVAMGYNRSEIEASLSQVRYDDVFATYLLLGRKSTDPESDGSRSGSSLSLRNISGNDAGANAGSASVQSPTHRGVHRSISASSTKPSRRASSGAETLRVGPTNAAATVAAATGAVGAVNPSNNYNAAGSAADRASVGSNFKRQNTIDSATIKENTARLAAQNQRPASATQKMLTTADTTLNSPAKPRTATKYDPTNGNRTVSGTSGIIPRRSTTLYEKTSSTEKTNVIPAETKMASAVKSSRHFPRNVPSRSTFHSGQTRARNNTALEYSGTSGASGDSSHPGRMSFFSKLSSRFSKRPNQ
in-gel in vitro kinase assay: these bands phosphorylated the Dsh substrate impregnated in the gel
